The text below walks through data of patent US5811267.

Assay [1] concerns the target P-glycoprotein (product of the human MDR1 gene) (human) (UniProt P08183). Description: solid phase whole-cell ELISA, hybridoma supernatant on fixed BATV.2 cells (human MDR1 transfected 3T3) against parent BA3T3 cells.
The target is the same in assay [2]. Description: indirect immunofluorescence on drug-resistant cell lines against drug-sensitive parental KB-3-1 cells.

Where only a bound is given, the exact number is not on record here.

With “monoclonal antibody produced by the hybridoma cell line 15D3 (ATCC No. HB11342)”, the fold reaction on BATV.2 cells over parent BA3T3 cells in assay [1] is more than 2 fold. Also, in assay [2], the fold reaction on resistant cell lines over KB-3-1 cells is more than 2 fold.
